Measurements reported in IntAct's records for PubMed 14673118.

B1: Thioredoxin (Synechocystis sp. (strain PCC 6803 / Kazusa)), P52231 (parent)
chain: MSATPQVSDASFKEDVLDSELPVLVDFWAPWCGPCRMVAPVVDEISQQYEGKVKVVKLNTDENPNTASQYGIRSIPTLMIFKGGQRVDMVVGAVPKTTLASTLEKYL
partner: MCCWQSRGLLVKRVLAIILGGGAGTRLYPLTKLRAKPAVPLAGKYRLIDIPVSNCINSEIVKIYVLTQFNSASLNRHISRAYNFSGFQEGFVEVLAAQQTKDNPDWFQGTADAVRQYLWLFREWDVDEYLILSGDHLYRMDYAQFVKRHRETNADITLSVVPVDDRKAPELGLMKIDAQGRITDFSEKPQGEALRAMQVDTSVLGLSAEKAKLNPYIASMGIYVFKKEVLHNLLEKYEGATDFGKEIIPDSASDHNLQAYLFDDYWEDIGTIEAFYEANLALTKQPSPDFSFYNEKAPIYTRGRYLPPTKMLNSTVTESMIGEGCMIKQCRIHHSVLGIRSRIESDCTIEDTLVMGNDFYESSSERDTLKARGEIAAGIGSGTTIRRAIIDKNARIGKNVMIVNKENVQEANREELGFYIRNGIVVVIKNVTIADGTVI
B2: Thioredoxin (Synechocystis sp. (strain PCC 6803 / Kazusa)), P52231 (parent)
chain: B1 chain
partner: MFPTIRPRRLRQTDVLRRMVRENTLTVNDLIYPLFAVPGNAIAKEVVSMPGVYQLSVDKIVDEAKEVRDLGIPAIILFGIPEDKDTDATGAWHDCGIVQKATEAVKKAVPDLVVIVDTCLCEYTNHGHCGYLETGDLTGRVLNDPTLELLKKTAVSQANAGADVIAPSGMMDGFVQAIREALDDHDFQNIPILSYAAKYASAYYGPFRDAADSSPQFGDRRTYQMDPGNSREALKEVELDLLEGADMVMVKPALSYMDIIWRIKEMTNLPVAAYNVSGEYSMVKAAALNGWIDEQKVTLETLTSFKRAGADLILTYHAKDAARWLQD
B3: Thioredoxin (Synechocystis sp. (strain PCC 6803 / Kazusa)), P52231 (parent)
chain: B1 chain
partner: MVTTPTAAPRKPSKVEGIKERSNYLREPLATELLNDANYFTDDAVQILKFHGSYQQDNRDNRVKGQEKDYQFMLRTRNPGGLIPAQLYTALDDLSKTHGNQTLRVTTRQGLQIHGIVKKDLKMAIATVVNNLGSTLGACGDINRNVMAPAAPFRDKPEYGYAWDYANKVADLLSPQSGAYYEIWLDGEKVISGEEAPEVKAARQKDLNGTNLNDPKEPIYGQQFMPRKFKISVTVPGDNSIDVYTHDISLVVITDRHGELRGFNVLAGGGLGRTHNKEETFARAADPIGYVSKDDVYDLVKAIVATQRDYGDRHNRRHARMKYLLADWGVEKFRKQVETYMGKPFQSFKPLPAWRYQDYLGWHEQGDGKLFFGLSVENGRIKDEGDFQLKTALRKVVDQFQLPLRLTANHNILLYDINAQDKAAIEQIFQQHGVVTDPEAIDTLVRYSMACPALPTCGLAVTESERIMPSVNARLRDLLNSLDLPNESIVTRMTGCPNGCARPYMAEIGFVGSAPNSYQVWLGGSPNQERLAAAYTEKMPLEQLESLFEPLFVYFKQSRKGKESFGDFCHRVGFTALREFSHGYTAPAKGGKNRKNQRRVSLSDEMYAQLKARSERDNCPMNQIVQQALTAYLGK
B4: Thioredoxin (Synechocystis sp. (strain PCC 6803 / Kazusa)), P52231 (parent)
chain: B1 chain
partner: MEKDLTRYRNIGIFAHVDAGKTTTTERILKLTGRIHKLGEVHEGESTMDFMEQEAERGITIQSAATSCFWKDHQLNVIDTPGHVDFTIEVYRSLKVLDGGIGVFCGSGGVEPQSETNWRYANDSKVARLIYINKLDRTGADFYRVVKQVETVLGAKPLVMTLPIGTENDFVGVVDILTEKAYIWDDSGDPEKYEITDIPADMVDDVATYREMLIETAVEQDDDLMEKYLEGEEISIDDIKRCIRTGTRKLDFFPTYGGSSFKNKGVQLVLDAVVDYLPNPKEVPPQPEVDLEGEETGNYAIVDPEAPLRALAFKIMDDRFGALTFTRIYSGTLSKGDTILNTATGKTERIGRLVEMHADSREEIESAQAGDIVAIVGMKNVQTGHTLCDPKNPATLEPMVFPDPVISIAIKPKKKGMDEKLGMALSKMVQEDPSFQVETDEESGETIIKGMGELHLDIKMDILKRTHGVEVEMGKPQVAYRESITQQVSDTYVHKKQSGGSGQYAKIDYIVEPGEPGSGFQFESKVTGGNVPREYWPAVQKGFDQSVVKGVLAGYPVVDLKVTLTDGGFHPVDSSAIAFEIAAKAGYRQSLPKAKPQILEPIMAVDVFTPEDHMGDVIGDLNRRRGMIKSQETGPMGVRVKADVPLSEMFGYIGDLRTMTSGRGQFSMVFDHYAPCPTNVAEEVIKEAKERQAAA
B5: Thioredoxin (Synechocystis sp. (strain PCC 6803 / Kazusa)), P52231 (parent)
chain: B1 chain
B6: Thioredoxin (Synechocystis sp. (strain PCC 6803 / Kazusa)), P52231 (parent)
chain: B1 chain
partner: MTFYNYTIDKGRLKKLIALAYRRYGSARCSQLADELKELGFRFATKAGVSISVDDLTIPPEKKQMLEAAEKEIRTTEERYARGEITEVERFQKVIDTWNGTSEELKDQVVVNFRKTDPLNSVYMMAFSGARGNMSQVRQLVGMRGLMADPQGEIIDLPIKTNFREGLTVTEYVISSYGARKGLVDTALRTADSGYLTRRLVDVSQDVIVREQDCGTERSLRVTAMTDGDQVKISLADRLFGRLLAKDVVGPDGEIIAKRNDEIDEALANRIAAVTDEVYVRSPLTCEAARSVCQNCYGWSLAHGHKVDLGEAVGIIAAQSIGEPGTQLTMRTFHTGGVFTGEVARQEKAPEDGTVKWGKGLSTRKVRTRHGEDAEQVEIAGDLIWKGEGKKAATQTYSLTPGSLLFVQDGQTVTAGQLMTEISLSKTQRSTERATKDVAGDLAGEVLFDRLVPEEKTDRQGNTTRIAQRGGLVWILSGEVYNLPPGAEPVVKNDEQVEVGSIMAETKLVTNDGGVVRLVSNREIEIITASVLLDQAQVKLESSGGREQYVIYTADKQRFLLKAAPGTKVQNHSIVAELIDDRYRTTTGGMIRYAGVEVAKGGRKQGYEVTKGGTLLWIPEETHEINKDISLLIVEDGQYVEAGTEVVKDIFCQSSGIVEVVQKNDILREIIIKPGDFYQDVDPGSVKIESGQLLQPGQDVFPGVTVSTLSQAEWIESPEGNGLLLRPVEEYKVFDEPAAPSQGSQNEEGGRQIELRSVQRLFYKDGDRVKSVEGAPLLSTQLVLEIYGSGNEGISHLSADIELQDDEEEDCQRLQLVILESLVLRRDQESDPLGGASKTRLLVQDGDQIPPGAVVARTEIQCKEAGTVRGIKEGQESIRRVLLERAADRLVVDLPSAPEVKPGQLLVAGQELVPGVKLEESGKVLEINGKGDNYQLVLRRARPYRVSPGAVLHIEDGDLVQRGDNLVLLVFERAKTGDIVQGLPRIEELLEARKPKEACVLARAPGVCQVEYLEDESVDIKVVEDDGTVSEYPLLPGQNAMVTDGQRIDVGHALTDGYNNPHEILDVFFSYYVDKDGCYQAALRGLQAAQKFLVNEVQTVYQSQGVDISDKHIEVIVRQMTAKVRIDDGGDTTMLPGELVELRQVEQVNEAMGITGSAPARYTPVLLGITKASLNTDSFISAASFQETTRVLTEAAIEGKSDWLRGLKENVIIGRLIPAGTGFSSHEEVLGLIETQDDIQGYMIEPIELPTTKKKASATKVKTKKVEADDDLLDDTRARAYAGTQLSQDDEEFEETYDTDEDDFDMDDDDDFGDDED
B7: Thioredoxin (Synechocystis sp. (strain PCC 6803 / Kazusa)), P52231 (parent)
chain: B1 chain
partner: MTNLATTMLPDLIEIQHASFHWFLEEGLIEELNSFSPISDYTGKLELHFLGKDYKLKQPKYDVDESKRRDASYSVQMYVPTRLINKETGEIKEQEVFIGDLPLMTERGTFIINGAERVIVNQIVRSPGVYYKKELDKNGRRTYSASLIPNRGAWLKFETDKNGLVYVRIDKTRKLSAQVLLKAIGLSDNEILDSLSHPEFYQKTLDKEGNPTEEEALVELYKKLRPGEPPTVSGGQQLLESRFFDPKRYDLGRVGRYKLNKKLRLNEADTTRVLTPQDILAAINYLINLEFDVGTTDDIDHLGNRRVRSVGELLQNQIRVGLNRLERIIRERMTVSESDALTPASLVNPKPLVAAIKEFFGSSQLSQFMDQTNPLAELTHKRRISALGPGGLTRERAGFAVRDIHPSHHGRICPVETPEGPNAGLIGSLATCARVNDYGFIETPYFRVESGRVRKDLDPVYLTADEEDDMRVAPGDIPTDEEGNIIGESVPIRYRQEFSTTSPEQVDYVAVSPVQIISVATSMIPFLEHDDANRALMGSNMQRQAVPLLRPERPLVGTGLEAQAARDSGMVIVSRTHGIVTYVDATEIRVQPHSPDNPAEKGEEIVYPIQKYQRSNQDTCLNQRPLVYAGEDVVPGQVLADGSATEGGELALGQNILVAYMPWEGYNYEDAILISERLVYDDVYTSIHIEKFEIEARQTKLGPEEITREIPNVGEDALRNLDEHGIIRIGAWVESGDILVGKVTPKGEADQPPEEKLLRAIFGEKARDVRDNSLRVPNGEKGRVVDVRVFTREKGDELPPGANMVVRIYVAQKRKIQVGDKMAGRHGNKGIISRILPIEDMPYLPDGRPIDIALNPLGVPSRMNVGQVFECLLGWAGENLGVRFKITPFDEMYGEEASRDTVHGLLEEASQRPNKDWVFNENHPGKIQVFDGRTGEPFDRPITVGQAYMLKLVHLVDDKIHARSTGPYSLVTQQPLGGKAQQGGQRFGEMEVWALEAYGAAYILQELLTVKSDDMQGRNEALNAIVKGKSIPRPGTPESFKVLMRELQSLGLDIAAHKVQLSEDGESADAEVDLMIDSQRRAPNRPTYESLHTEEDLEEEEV

Variants of: B1
Settings: with glgc_syny3 glgC

effect of a mutation on the interaction	Variant
increasing interaction	C35S

Variants of: B2
Settings: with hem2_syny3 hemB

effect of a mutation on the interaction	Variant
increasing interaction	C35S

Variants of: B3
Settings: with sir_syny3 sir

effect of a mutation on the interaction	Variant
increasing interaction	C35S

Variants of: B4
Settings: with efg1_syny3 fusA

effect of a mutation on the interaction	Variant
increasing interaction	C35S

Variants of: B5
Settings: with glts_syny3 gltS

effect of a mutation on the interaction	Variant
increasing interaction	C35S

Variants of: B5
Settings: with rbl_syny3 cbbL

effect of a mutation on the interaction	Variant
increasing interaction	C35S

Variants of: B5
Settings: with eftu_syny3 tuf

effect of a mutation on the interaction	Variant
increasing interaction	C35S

Variants of: B5
Settings: with gltb_syny3 gltB

effect of a mutation on the interaction	Variant
increasing interaction	C35S

Variants of: B5
Settings: with apce_syny3 apcE

effect of a mutation on the interaction	Variant
increasing interaction	C35S

Variants of: B6
Settings: with rpoc2_syny3 rpoC2, P73334

effect of a mutation on the interaction	Variant
increasing interaction	C35S

Variants of: B7
Settings: with rpob_syny3 rpoB

effect of a mutation on the interaction	Variant
increasing interaction	C35S
